Assay results published in US20250320281A1.

Key:
Assay in all cases: cell-based or functional assay
[1] = target: HIV-1 92BR020 envelope glycoprotein (Env) on pseudovirus (HIV-1)
[2] = target: HIV-1 92RW020 envelope glycoprotein (Env) on pseudovirus (HIV-1)
[3] = target: HIV-1 92TH021 envelope glycoprotein (Env) on pseudovirus (HIV-1)
[4] = target: HIV-1 92UG005 envelope glycoprotein (Env) on pseudovirus (HIV-1)
[5] = target: HIV-1 92UG024 envelope glycoprotein (Env) on pseudovirus (HIV-1)
[6] = target: HIV-1 93IN905 envelope glycoprotein (Env) on pseudovirus (HIV-1)
[7] = target: HIV-1 93UG077 envelope glycoprotein (Env) on pseudovirus (HIV-1)
[8] = target: HIV-1 94UG103 envelope glycoprotein (Env) on pseudovirus (HIV-1)
[9] = target: HIV-1 APV13 envelope glycoprotein (Env) on pseudovirus (HIV-1)
[10] = target: HIV-1 APV17 envelope glycoprotein (Env) on pseudovirus (HIV-1)
[11] = target: HIV-1 APV6 envelope glycoprotein (Env) on pseudovirus (HIV-1)
[12] = target: HIV-1 CMU02 envelope glycoprotein (Env) on pseudovirus (HIV-1)
[13] = target: HIV-1 JRCSF envelope glycoprotein (Env) on pseudovirus (HIV-1) (UniProt P20871)
[14] = target: HIV-1 JRFL envelope glycoprotein (Env) on pseudovirus (HIV-1)
[15] = target: HIV-1 MGRM-A-010 envelope glycoprotein (Env) on pseudovirus (HIV-1)
[16] = target: HIV-1 MGRM-AG-005 envelope glycoprotein (Env) on pseudovirus (HIV-1)
[17] = target: HIV-1 MGRM-C-026 envelope glycoprotein (Env) on pseudovirus (HIV-1)
[18] = target: HIV-1 MGRM-C-027 envelope glycoprotein (Env) on pseudovirus (HIV-1)
[19] = target: HIV-1 MGRM-C-028 envelope glycoprotein (Env) on pseudovirus (HIV-1)
[20] = target: HIV-1 MGRM-D-001 envelope glycoprotein (Env) on pseudovirus (HIV-1)
[21] = target: HIV-1 MGRM-D-018 envelope glycoprotein (Env) on pseudovirus (HIV-1)
[22] = target: HIV-1 NL43 envelope glycoprotein (Env) on pseudovirus (HIV-1)
[23] = target: aMLV envelope on pseudovirus (negative control virus)
[24] = target: HIV-1 Env of isolate 92RW008 (pseudovirus) (HIV-1)
[25] = target: HIV-1 Env of isolate 92TH021 (pseudovirus) (HIV-1)
[26] = target: HIV-1 Env of isolate 92UG031 (pseudovirus) (HIV-1)
[27] = target: HIV-1 Env of isolate 92UG037 (pseudovirus) (HIV-1)
[28] = target: HIV-1 Env of isolate 92WR009 (pseudovirus) (HIV-1)
[29] = target: HIV-1 Env of isolate 92WR020 (pseudovirus) (HIV-1)
[30] = target: HIV-1 Env of isolate 92WR021 (pseudovirus) (HIV-1)
[31] = target: HIV-1 Env of isolate 92WR024 (pseudovirus) (HIV-1)
[32] = target: HIV-1 Env of isolate 92WR026 (pseudovirus) (HIV-1)
[33] = target: HIV-1 Env of isolate 93UG077 (pseudovirus) (HIV-1)
[34] = target: HIV-1 Env of isolate 93WR029 (pseudovirus) (HIV-1)
[35] = target: HIV-1 Env of isolate 94KE105 (pseudovirus) (HIV-1)
[36] = target: HIV-1 Env of isolate 94UG103 (pseudovirus) (HIV-1)
[37] = target: HIV-1 Env of isolate CMU02 (pseudovirus) (HIV-1)
[38] = target: HIV-1 Env of isolate MGRM-A-001 (pseudovirus) (HIV-1)
[39] = target: HIV-1 Env of isolate MGRM-A-002 (pseudovirus) (HIV-1)
[40] = target: HIV-1 Env of isolate MGRM-A-003 (pseudovirus) (HIV-1)
[41] = target: HIV-1 Env of isolate MGRM-A-004 (pseudovirus) (HIV-1)
[42] = target: HIV-1 Env of isolate MGRM-A-005 (pseudovirus) (HIV-1)
[43] = target: HIV-1 Env of isolate MGRM-A-006 (pseudovirus) (HIV-1)
[44] = target: HIV-1 Env of isolate MGRM-A-007 (pseudovirus) (HIV-1)
[45] = target: HIV-1 Env of isolate MGRM-A-008 (pseudovirus) (HIV-1)
[46] = target: HIV-1 Env of isolate MGRM-A-009 (pseudovirus) (HIV-1)
[47] = target: HIV-1 Env of isolate MGRM-A-010 (pseudovirus) (HIV-1)
[48] = target: HIV-1 Env of isolate MGRM-A-011 (pseudovirus) (HIV-1)
[49] = target: HIV-1 Env of isolate MGRM-A-012 (pseudovirus) (HIV-1)
[50] = target: HIV-1 Env of isolate MGRM-A-013 (pseudovirus) (HIV-1)
[51] = target: HIV-1 Env of isolate MGRM-A-014 (pseudovirus) (HIV-1)
[52] = target: HIV-1 Env of isolate MGRM-AE-001 (pseudovirus) (HIV-1)
[53] = target: HIV-1 Env of isolate MGRM-AE-002 (pseudovirus) (HIV-1)
[54] = target: HIV-1 Env of isolate MGRM-AE-003 (pseudovirus) (HIV-1)
[55] = target: HIV-1 Env of isolate VLGCA1 (pseudovirus) (HIV-1)

B1: PGT-136 (5329_C19; 5366_P21) human monoclonal anti-HIV-1 antibody (antibody, V domains shown)
VH: QLQLQESGPGLVKPSETLSLTCTVSGGSMRGTDWGENDFHYGWIRQSSAKGLEWIGSIHWRGRTTHYKTSFRSRATLSIDTSNNRFSLTFSFVTAADTAVYYCARHKYHDIFRVVPVAGWFDPWGQGLLVTVSS
VL: EIVMTQSPPTLSVSPGETATLSCRASQNVKNNLAWYQLKPGQAPRLLIFDASSRAGGIPDRFSGSGYGTDFTLTVNSVQSEDFGDYFCQQYEEWPRTFGQGTKVDIK
- neutralization IC50 [1]: > 10 µg/mL
- neutralization IC80 [1]: > 10 µg/mL
- neutralization IC90 [1]: > 10 µg/mL
- neutralization IC95 [1]: > 10 µg/mL
- neutralization IC50 [2]: 0.738 µg/mL
- neutralization IC80 [2]: > 10 µg/mL
- neutralization IC90 [2]: > 10 µg/mL
- neutralization IC95 [2]: > 10 µg/mL
- neutralization IC50 [3]: > 10 µg/mL
- neutralization IC80 [3]: > 10 µg/mL
- neutralization IC90 [3]: > 10 µg/mL
- neutralization IC95 [3]: > 10 µg/mL
- neutralization IC50 [4]: > 10 µg/mL
- neutralization IC80 [4]: > 10 µg/mL
- neutralization IC90 [4]: > 10 µg/mL
- neutralization IC95 [4]: > 10 µg/mL
- neutralization IC50 [5]: 0.0915 µg/mL
- neutralization IC80 [5]: 0.619 µg/mL
- neutralization IC90 [5]: 1.96 µg/mL
- neutralization IC95 [5]: 5.97 µg/mL
- neutralization IC50 [6]: 0.0135 µg/mL
- neutralization IC80 [6]: 0.0623 µg/mL
- neutralization IC90 [6]: 0.156 µg/mL
- neutralization IC95 [6]: 0.379 µg/mL
- neutralization IC50 [7]: > 10 µg/mL
- neutralization IC80 [7]: > 10 µg/mL
- neutralization IC90 [7]: > 10 µg/mL
- neutralization IC95 [7]: > 10 µg/mL
- neutralization IC50 [8]: > 10 µg/mL
- neutralization IC80 [8]: > 10 µg/mL
- neutralization IC90 [8]: > 10 µg/mL
- neutralization IC95 [8]: > 10 µg/mL
- neutralization IC50 [9]: > 10 µg/mL
- neutralization IC80 [9]: > 10 µg/mL
- neutralization IC90 [9]: > 10 µg/mL
- neutralization IC95 [9]: > 10 µg/mL
- neutralization IC50 [10]: > 10 µg/mL
- neutralization IC80 [10]: > 10 µg/mL
- neutralization IC90 [10]: > 10 µg/mL
- neutralization IC95 [10]: > 10 µg/mL
- neutralization IC50 [11]: > 10 µg/mL
- neutralization IC80 [11]: > 10 µg/mL
- neutralization IC90 [11]: > 10 µg/mL
- neutralization IC95 [11]: > 10 µg/mL
- neutralization IC50 [12]: > 10 µg/mL
- neutralization IC80 [12]: > 10 µg/mL
- neutralization IC90 [12]: > 10 µg/mL
- neutralization IC95 [12]: > 10 µg/mL
- neutralization IC50 [13]: > 10 µg/mL
- neutralization IC80 [13]: > 10 µg/mL
- neutralization IC90 [13]: > 10 µg/mL
- neutralization IC95 [13]: > 10 µg/mL
- neutralization IC50 [14]: > 10 µg/mL
- neutralization IC80 [14]: > 10 µg/mL
- neutralization IC90 [14]: > 10 µg/mL
- neutralization IC95 [14]: > 10 µg/mL
- neutralization IC50 [15]: > 10 µg/mL
- neutralization IC80 [15]: > 10 µg/mL
- neutralization IC90 [15]: > 10 µg/mL
- neutralization IC95 [15]: > 10 µg/mL
- neutralization IC50 [16]: > 10 µg/mL
- neutralization IC80 [16]: > 10 µg/mL
- neutralization IC90 [16]: > 10 µg/mL
- neutralization IC95 [16]: > 10 µg/mL
- neutralization IC50 [17]: 0.0065 µg/mL
- neutralization IC80 [17]: 0.0285 µg/mL
- neutralization IC90 [17]: 0.0687 µg/mL
- neutralization IC95 [17]: 0.159 µg/mL
- neutralization IC50 [18]: > 10 µg/mL
- neutralization IC80 [18]: > 10 µg/mL
- neutralization IC90 [18]: > 10 µg/mL
- neutralization IC95 [18]: > 10 µg/mL
- neutralization IC50 [19]: > 10 µg/mL
- neutralization IC80 [19]: > 10 µg/mL
- neutralization IC90 [19]: > 10 µg/mL
- neutralization IC95 [19]: > 10 µg/mL
- neutralization IC50 [20]: > 10 µg/mL
- neutralization IC80 [20]: > 10 µg/mL
- neutralization IC90 [20]: > 10 µg/mL
- neutralization IC95 [20]: > 10 µg/mL
- neutralization IC50 [21]: > 10 µg/mL
- neutralization IC80 [21]: > 10 µg/mL
- neutralization IC90 [21]: > 10 µg/mL
- neutralization IC95 [21]: > 10 µg/mL
- neutralization IC50 [22]: > 10 µg/mL
- neutralization IC80 [22]: > 10 µg/mL
- neutralization IC90 [22]: > 10 µg/mL
- neutralization IC95 [22]: > 10 µg/mL
- neutralization IC50 [23]: > 10 µg/mL
- neutralization IC80 [23]: > 10 µg/mL
- neutralization IC90 [23]: > 10 µg/mL
- neutralization IC95 [23]: > 10 µg/mL

B2: PGT-123 (4858_P08) (antibody, V domains shown)
VH: QLHLQESGPGLVKPPETLSLTCSVSGASINDAYWSWIRQSPGKRPEWVGYVHHSGDTNYNPSLKRRVTFSLDTAKNEVSLKLVDLTAADSATYFCARALHGKRIYGIVALGELFTYFYMDVWGKGTAVTVSS
VL: SSMSVSPGETAKISCGKESIGSRAVQWYQQKPGQPPSLIIYNNQDRPAGVPERFSASPDFRPGTTATLTITNVDAEDEADYYCHIYDARGGTNWVFDRGTTLTVL
- IC50 (µg/mL), pseudovirus neutralization [24]: 0.003 µg/mL
- IC50 (µg/mL), pseudovirus neutralization [25]: > 50 µg/mL
- IC50 (µg/mL), pseudovirus neutralization [26]: > 50 µg/mL
- IC50 (µg/mL), pseudovirus neutralization [27]: 0.023 µg/mL
- IC50 (µg/mL), pseudovirus neutralization [28]: 15.7 µg/mL
- IC50 (µg/mL), pseudovirus neutralization [29]: 0.002 µg/mL
- IC50 (µg/mL), pseudovirus neutralization [30]: 0.005 µg/mL
- IC50 (µg/mL), pseudovirus neutralization [31]: > 50 µg/mL
- IC50 (µg/mL), pseudovirus neutralization [32]: 0.012 µg/mL
- IC50 (µg/mL), pseudovirus neutralization [33]: 0.028 µg/mL
- IC50 (µg/mL), pseudovirus neutralization [34]: > 50 µg/mL
- IC50 (µg/mL), pseudovirus neutralization [35]: 0.024 µg/mL
- IC50 (µg/mL), pseudovirus neutralization [36]: 0.678 µg/mL
- IC50 (µg/mL), pseudovirus neutralization [37]: > 50 µg/mL
- IC50 (µg/mL), pseudovirus neutralization [38]: > 50 µg/mL
- IC50 (µg/mL), pseudovirus neutralization [39]: 0.011 µg/mL
- IC50 (µg/mL), pseudovirus neutralization [40]: 0.495 µg/mL
- IC50 (µg/mL), pseudovirus neutralization [41]: > 50 µg/mL
- IC50 (µg/mL), pseudovirus neutralization [42]: > 50 µg/mL
- IC50 (µg/mL), pseudovirus neutralization [43]: > 50 µg/mL
- IC50 (µg/mL), pseudovirus neutralization [44]: > 50 µg/mL
- IC50 (µg/mL), pseudovirus neutralization [45]: > 50 µg/mL
- IC50 (µg/mL), pseudovirus neutralization [46]: 0.004 µg/mL
- IC50 (µg/mL), pseudovirus neutralization [47]: 0.705 µg/mL
- IC50 (µg/mL), pseudovirus neutralization [48]: > 50 µg/mL
- IC50 (µg/mL), pseudovirus neutralization [49]: 0.192 µg/mL
- IC50 (µg/mL), pseudovirus neutralization [50]: 0.565 µg/mL
- IC50 (µg/mL), pseudovirus neutralization [51]: 0.003 µg/mL
- IC50 (µg/mL), pseudovirus neutralization [52]: > 50 µg/mL
- IC50 (µg/mL), pseudovirus neutralization [53]: > 50 µg/mL
- IC50 (µg/mL), pseudovirus neutralization [54]: > 50 µg/mL
- IC50 (µg/mL), pseudovirus neutralization [55]: > 50 µg/mL
